Data taken from the Immune Epitope Database (IEDB).

Assays:
Assay in all cases: IEDB peptide-MHC binding, purified MHC/competitive/radioactivity; filed as Kd, often an IC50 or EC50 that approximates it; ≥ and ≤ were set here for values at or beyond the usual limits of such assays
[1] = target: HLA-A*02:03
[2] = target: HLA-A*02:02
[3] = target: HLA-A*02:06
[4] = target: HLA-A*33:01
[5] = target: HLA-A*03:01
[6] = target: HLA-A*31:01
[7] = target: HLA-A*11:01
[8] = target: HLA-A*68:01
[9] = source organism: SARS coronavirus Tor2
[10] = source organism: Vaccinia virus WR
[11] = source organism: Dengue virus 1 Brazil/97-11/1997
[12] = source organism: Dengue virus 4 Philippines/H241/1956
[13] = source organism: Lymphocytic choriomeningitis virus (strain Armstrong)
[14] = source organism: Mammarenavirus lassaense

WLVIGVAFL was tested, and the Kd [1, 9] was 0.942 nM, the Kd [2, 9] was 2.57 nM and the Kd [3, 9] was 180 nM.

Sequence YIMRVMANNV has a Kd [1, 10] of 1.96 nM, a Kd [2, 10] of 23 nM and a Kd [3, 10] of 14.2 nM.

For IMSMMNITRL, the Kd [1, 10] was 106 nM, the Kd [2, 10] was 61.8 nM and the Kd [3, 10] was 585 nM.

IMSIGFEARI gave a Kd [1, 10] of 1500 nM, a Kd [2, 10] of 703 nM and a Kd [3, 10] of 1600 nM.

Work on KLKVDSDSGL yielded a Kd [1, 10] of 55.8 nM, a Kd [2, 10] of 74.6 nM and a Kd [3, 10] of at least 10000 nM.

With LLKNDVPLA the Kd [1, 11] was 8.25 nM.

With KTPVIVVPVI the Kd [1, 10] was 6200 nM, the Kd [2, 10] was 9090 nM and the Kd [3, 10] was 1890 nM.

With IASILSLETV the Kd [1, 10] was 92.8 nM, the Kd [2, 10] was 234 nM and the Kd [3, 10] was 47.3 nM.

In the case of NMDKVSAQNI, the Kd [1, 10] is reported as 16800 nM, the Kd [2, 10] is reported as 8020 nM and the Kd [3, 10] is reported as at least 69800 nM.

Work on RVFKKIMSI yielded a Kd [1, 10] of 0.18 nM, a Kd [2, 10] of 350 nM and a Kd [3, 10] of 75.2 nM.

TICLKNEGV was tested, and the Kd [1, 10] was 120 nM, the Kd [2, 10] was 494 nM and the Kd [3, 10] was 311 nM.

Work on FMAYMIGQT yielded a Kd [1, 12] of 6.07 nM.

In the case of NSLILLECFV, the Kd [1, 13] is reported as 46.6 nM, the Kd [2, 13] is reported as 1.21 nM and the Kd [3, 13] is reported as 4.17 nM.

Sequence VMYASALVLL has a Kd [1, 9] of 4.03 nM, a Kd [2, 9] of 0.251 nM and a Kd [3, 9] of 41.4 nM.

FANVISKIYT gave a Kd [1, 10] of 5310 nM, a Kd [2, 10] of 7790 nM and a Kd [3, 10] of 1660 nM.

VLKAMHDKKI gave a Kd [1, 10] of at least 33900 nM, a Kd [2, 10] of at least 48900 nM and a Kd [3, 10] of at least 69800 nM.

Sequence YLVQQESSFV has a Kd [1, 9] of 17.5 nM, a Kd [2, 9] of 12700 nM and a Kd [3, 9] of 386 nM.

Work on DVDIPTFNSL yielded a Kd [1, 10] of 1030 nM, a Kd [2, 10] of 1810 nM and a Kd [3, 10] of 9710 nM.

NITTLLNETA gave a Kd [1, 10] of 106 nM, a Kd [2, 10] of 218 nM and a Kd [3, 10] of 1130 nM.

Sequence LMSDNPKAST has a Kd [1, 10] of 938 nM, a Kd [2, 10] of 8880 nM and a Kd [3, 10] of at least 47700 nM.

In the case of AATKRYPGVM, the Kd [1, 10] is reported as at least 47900 nM, the Kd [2, 10] is reported as at least 20100 nM and the Kd [3, 10] is reported as at least 46900 nM.

Work on IAVASGLLWV yielded a Kd [3, 12] of 10.6 nM.

In the case of VMHINSPFKV, the Kd [1, 10] is reported as 2.51 nM, the Kd [2, 10] is reported as 60.3 nM and the Kd [3, 10] is reported as 393 nM.

With SIPISELSRL the Kd [1, 10] was 60.6 nM, the Kd [2, 10] was 252 nM and the Kd [3, 10] was 78.2 nM.

With GIADIRDKYM the Kd [1, 10] was 48.2 nM, the Kd [2, 10] was 0.693 nM and the Kd [3, 10] was 1780 nM.

With RLATAIAGA the Kd ([1]; source organism: Dengue virus 3 Martinique/1243/1999) was 11.5 nM.

PASISSVLT gave a Kd [1, 10] of 1360 nM, a Kd [2, 10] of 1380 nM and a Kd [3, 10] of 1490 nM.

YIESKAKQL showed a Kd [1, 10] of 439 nM, a Kd [2, 10] of 144 nM and a Kd [3, 10] of 2990 nM.

Sequence HLTENNLYI has a Kd [1, 10] of 14400 nM, a Kd [2, 10] of 114 nM and a Kd [3, 10] of 1810 nM.

For SLVYGIRCV, the Kd [1, 10] was 3.83 nM, the Kd [2, 10] was 2940 nM and the Kd [3, 10] was 168 nM.

With ILYYGANGST the Kd [1, 10] was 39.3 nM, the Kd [2, 10] was 341 nM and the Kd [3, 10] was 1840 nM.

In the case of RVNDLNRMPT, the Kd [1, 10] is reported as 1440 nM, the Kd [2, 10] is reported as 1360 nM and the Kd [3, 10] is reported as 7720 nM.

For PQDNQLAYV, the Kd [3, 11] was 166 nM.

In the case of STTGEWPLI, the Kd [1, 10] is reported as at least 44500 nM, the Kd [2, 10] is reported as at least 21100 nM and the Kd [3, 10] is reported as 1240 nM.

Sequence ELMMTTIGIV has a Kd ([1]; source organism: Dengue virus 2 Peru/IQT2913/1996) of 2.02 nM.

For FQFICNLLLL, the Kd [1, 9] was 62 nM, the Kd [2, 9] was 7.94 nM and the Kd [3, 9] was 0.87 nM.

GALDVSASV gave a Kd [1, 9] of 2.34 nM, a Kd [2, 9] of 0.718 nM and a Kd [3, 9] of 2.27 nM.

In the case of AIAACAMLLV, the Kd [1, 9] is reported as 31.6 nM, the Kd [2, 9] is reported as 5.9 nM and the Kd [3, 9] is reported as 77.8 nM.

With GVLIAGIIL the Kd [1, 10] was 1040 nM, the Kd [2, 10] was 5240 nM and the Kd [3, 10] was 951 nM.

For QLMYDIINSV, the Kd [1, 10] was 0.139 nM, the Kd [2, 10] was 1.87 nM and the Kd [3, 10] was 5.61 nM.

Sequence FMEEEIKAEM has a Kd [1, 10] of 3070 nM, a Kd [2, 10] of 1030 nM and a Kd [3, 10] of 865 nM.

Work on LVITYCLVT yielded a Kd [1, 10] of 3250 nM, a Kd [2, 10] of 6980 nM and a Kd [3, 10] of 8000 nM.

LILCFTIKR was tested, and the Kd [4, 9] was 7030 nM, the Kd [5, 9] was 1400 nM and the Kd [6, 9] was 9010 nM. The Kd [7, 9] was 231 nM and the Kd [8, 9] was 1410 nM.

Work on FTSTNDKIK yielded a Kd [4, 10] of at least 77700 nM, a Kd [5, 10] of 1190 nM and a Kd [6, 10] of 15200 nM. It also gave a Kd [7, 10] of 58.8 nM and a Kd [8, 10] of 113 nM.

With QLPQGTTLPK the Kd [4, 9] was at least 37000 nM, the Kd [5, 9] was 52.5 nM and the Kd [6, 9] was 8640 nM. The Kd [7, 9] was 396 nM and the Kd [8, 9] was 317 nM.

With SVSGDLILEI the Kd [3, 11] was 89.1 nM.

Sequence IMQVFFGYFA has a Kd [1, 9] of 1570 nM, a Kd [2, 9] of 590 nM and a Kd [3, 9] of 51.1 nM.

DLVKSSFVKK gave a Kd [4, 10] of 281 nM, a Kd [5, 10] of 156 nM and a Kd [6, 10] of 169 nM. For the same sequence, the Kd [7, 10] was 177 nM and the Kd [8, 10] was 1130 nM.

Sequence ITFFQEVPH has a Kd [4, 14] of at least 77700 nM, a Kd [5, 14] of 10800 nM and a Kd [6, 14] of 8040 nM. The Kd [7, 14] was 197 nM and the Kd [8, 14] was 72.5 nM.

Work on NIVTDLENRL yielded a Kd [1, 10] of 17600 nM, a Kd [2, 10] of 261 nM and a Kd [3, 10] of 1550 nM.

YVKNGTKGKL showed a Kd [1, 10] of 7170 nM, a Kd [2, 10] of 5720 nM and a Kd [3, 10] of at least 28400 nM.

In the case of ISSVLTILYY, the Kd [4, 10] is reported as 1430 nM, the Kd [5, 10] is reported as 561 nM and the Kd [6, 10] is reported as 5890 nM. For the same sequence, the Kd [7, 10] was 155 nM and the Kd [8, 10] was 162 nM.
